{"source": "patent US20040146873", "key": {"[1]": {"system": "T1, hPER2 fragment, amino acids 474 to 815, S662D, 6-myc-tagged", "T1 sequence": "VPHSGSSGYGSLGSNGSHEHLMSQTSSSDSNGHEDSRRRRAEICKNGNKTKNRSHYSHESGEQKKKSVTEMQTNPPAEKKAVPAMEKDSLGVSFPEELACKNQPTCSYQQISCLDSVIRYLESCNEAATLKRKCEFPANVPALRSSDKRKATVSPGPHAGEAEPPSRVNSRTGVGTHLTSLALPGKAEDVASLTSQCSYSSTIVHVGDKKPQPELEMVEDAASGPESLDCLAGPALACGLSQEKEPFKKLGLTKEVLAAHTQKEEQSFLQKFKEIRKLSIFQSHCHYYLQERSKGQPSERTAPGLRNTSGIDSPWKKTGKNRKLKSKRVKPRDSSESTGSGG"}, "[2]": {"system": "T2, hPER2 fragment, amino acids 474 to 815, S662E, 6-myc-tagged", "T2 sequence": "T1 sequence with D189E"}, "[3]": {"system": "T3, hPER2 fragment, amino acids 474 to 815, mutant S662G (662G), 6-myc-tagged", "T3 sequence": "T1 sequence with D189G"}, "[4]": {"system": "T4, hPER2 fragment, amino acids 474 to 815, wild-type (662S), 6-myc-tagged", "T4 sequence": "T1 sequence with D189S"}, "[5]": {"system": "hPER2 peptides in the region of serine 662 with a negative charge at position 662 (covalently linked phosphate or aspartate)"}, "[6]": {"target": "mPER2 fragment, amino acids 472 to 804, serine 659 substituted by glycine, 6-myc-tagged (UniProt O54943)"}, "[7]": {"target": "mPER2 fragment, amino acids 472 to 804, wild-type, 6-myc-tagged (UniProt O54943)"}}, "note": "Numbering of substitutions follows the chain as printed.", "data": [{"substance": "casein kinase Iε (CKIε)", "values": [{"measurement": "phosphorylation (mobility shift)", "setting": "[1]", "result": "Phosphorylation was restored in both the S662D and S662E mutants, with a higher phosphorylation rate observed with the S662D mutant"}, {"measurement": "phosphorylation (mobility shift)", "setting": "[2]", "result": "Phosphorylation was restored in both the S662D and S662E mutants, with a higher phosphorylation rate observed with the S662D mutant"}, {"measurement": "electrophoretic mobility shift (phosphorylation) at higher CKIε, 6.5 ng/µl", "setting": "[3]", "result": "mobility shifts were observed for both the wild type and mutant hPER2 fragments"}, {"measurement": "electrophoretic mobility shift (phosphorylation) at low CKIε, 0.25 ng/µl", "setting": "[3]", "result": "an electrophoretic mobility shift was observed with the wild-type (662S) but not with the mutant (662G) fragment"}, {"measurement": "electrophoretic mobility shift (phosphorylation) at higher CKIε, 6.5 ng/µl", "setting": "[4]", "result": "mobility shifts were observed for both the wild type and mutant hPER2 fragments"}, {"measurement": "electrophoretic mobility shift (phosphorylation) at low CKIε, 0.25 ng/µl", "setting": "[4]", "result": "an electrophoretic mobility shift was observed with the wild-type (662S) but not with the mutant (662G) fragment"}, {"measurement": "phosphorylation stoichiometry (biochemical phosphorylation assay and mass spectrometry)", "setting": "[5]", "result": "phosphorylation of an additional four moles per mole of substrate when there is a negative charge at serine 662"}, {"measurement": "electrophoretic mobility shift (phosphorylation) at low CKIε", "setting": "[6]", "result": "A similar result was obtained with wild-type and mutant mPER2 fragments (data not shown)"}, {"measurement": "electrophoretic mobility shift (phosphorylation) at low CKIε", "setting": "[7]", "result": "A similar result was obtained with wild-type and mutant mPER2 fragments (data not shown)"}]}]}
